Experimental data taken from patent publication US20190177730.

Key:
[1] = target: T1, PCSK9 D374Y D374Y (Homo sapiens) (UniProt Q8NBP7+Q8NBP7); assay: filter; conditions: all C = PP-dC (5-position), all U = Nap-dU (5-position); aptamer identity per figure legend; text names 11733-198
[2] = target: T1, PCSK9 D374Y D374Y (Homo sapiens); assay: inhibition; conditions: all C = PP-dC (5-position), all U = Nap-dU (5-position); blocks PCSK9 D374Y binding to LDL-R, room temperature; text names 11733-198

T1 sequence (Q8NBP7 whole entry, stated change not applied, chain 1 of 2): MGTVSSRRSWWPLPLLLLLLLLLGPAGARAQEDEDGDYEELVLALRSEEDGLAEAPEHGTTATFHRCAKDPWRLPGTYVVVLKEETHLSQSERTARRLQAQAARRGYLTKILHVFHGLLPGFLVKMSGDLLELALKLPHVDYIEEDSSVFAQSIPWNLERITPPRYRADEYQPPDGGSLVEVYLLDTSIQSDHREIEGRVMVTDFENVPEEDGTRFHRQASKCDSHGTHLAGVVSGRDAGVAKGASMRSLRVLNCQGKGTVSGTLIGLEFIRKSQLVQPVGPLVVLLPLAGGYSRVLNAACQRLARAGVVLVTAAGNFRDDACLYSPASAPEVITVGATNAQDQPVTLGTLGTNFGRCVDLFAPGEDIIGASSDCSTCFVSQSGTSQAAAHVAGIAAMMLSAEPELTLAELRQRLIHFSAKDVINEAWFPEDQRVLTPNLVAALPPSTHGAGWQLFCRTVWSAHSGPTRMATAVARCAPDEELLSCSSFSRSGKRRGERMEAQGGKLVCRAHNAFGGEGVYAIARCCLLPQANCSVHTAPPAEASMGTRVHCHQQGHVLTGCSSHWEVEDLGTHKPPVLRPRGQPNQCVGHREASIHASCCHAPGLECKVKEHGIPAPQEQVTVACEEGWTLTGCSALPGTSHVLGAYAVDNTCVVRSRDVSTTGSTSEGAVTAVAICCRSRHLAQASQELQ
T1 sequence (Q8NBP7 whole entry, stated change not applied, chain 2 of 2): as the sequence (Q8NBP7 whole entry, stated change not applied, chain 1 of 2) above

Sequence: AACGUACUUUAAGGCCUAUUGAGGAAACUC [11733-44 (SL1063)]
- Kd [1]: 0.0052 nM
- EC50 [2]: 3.6 nM
